This note sets out measurements from patent US20260139001A1 (Harvard, published 2026).

For this test, the target named is RBD (Severe acute respiratory syndrome …, UniProt P59594).

B1: Wuhan-NS (VHH72 NoK V104K conjugated with NBD-x; V104NBDxK) (VHH)
VHH: QVQLQESGGGLVQAGGSLRLSCAASGRTFSEYAMGWFRQAPGREREFVATISWSGGSTYYTDSVRGRFTISRDNARNTVYLQMNSLRPDDTAVYYCAAAGLGTKVSEWDYDYDYWGQGTQVTVSS
In the case of B1, it took 123 nM to reach a half-maximal effect (EC50).
